Results on 1 molecule are retold here after patent US8524227B2, “Anti-IL-TIF antibodies” (ZymoGenetics, Inc., priority 2002, dated 2013).

Data set [1] is described as follows: Mouse collagen induced arthritis (CIA) model. Type of data set: in vivo, mice. Particulars: for IL-6 levels / SAA concentrations: Day 0 serum 4 hr post 25 μg LPS. The procedure: Ten week old male DBA/1J mice (Jackson Labs) were divided into 3 groups of 13 mice/group. On day-21, animals were given a subcutaneous injection of 50-100 μl of 1 mg/ml chick Type II collagen formulated in Complete Freund's Adjuvant (prepared by Chondrex, Redmond, Wash.), and three weeks later on Day 0 they were given a 100 μl (25 μg) injection of LPS from E. coli 0111:B4, prepared as 250 μg/ml from a lyophilized aliquot (Sigma, St. Louis, Mo.). Zcytor16 was administered as an intraperitoneal injection 3 times a week for 4 weeks, from Day 0 to Day 25. The first two groups received either 100 or 10 μg of zcytor16 per animal per dose, and the third group received the vehicle control, PBS (Life Technologies, Rockville, Md.). Animals began to show symptoms of arthritis following the LPS injection, with most animals developing inflammation within 2-3 weeks. The extent of disease was evaluated in each paw by using a caliper to measure paw thickness, and by assigning a clinical score (0-3) to each paw: 0=Normal, 0.5=Toe(s) inflamed, 1=Mild paw inflammation, 2=Moderate paw inflammation, and 3=Severe paw inflammation as detailed below.
All animals were observed daily to assess the status of the disease in their paws, which was done by assigning a qualitative clinical score to each of the paws. Every day, each animal has its 4 paws scored according to its state of clinical disease. To determine the clinical score, the paw can be thought of as having 3 zones, the toes, the paw itself (manus or pes), and the wrist or ankle joint. The extent and severity of the inflammation relative to these zones was noted including observation all the toes for any joint swelling, torn nails, or redness, notation of any evidence of edema or redness in any of the paws, and notation any loss of fine anatomic demarcation of tendons or bones, and evaluation the wrist or ankle for any edema or redness, and notation if the inflammation extends proximally up the leg. A paw a score of 1, 2, or 3 was based first on the overall impression of severity, and second on how many zones were involved. The scale used for clinical scoring is shown below.
Blood was collected throughout the experiment to monitor serum levels of anti-collagen antibodies. Animals were euthanized on Day 21, and blood was collected for serum and for CBC's. From each animal, one affected paw was collected in 10% NBF for histology and one was frozen in liquid nitrogen and stored at […] for mRNA analysis. Also, ½ spleen, ½ thymus, ½ mesenteric lymph node, one liver lobe and the left kidney were collected in RNAlater for RNA analysis, and ½ spleen, ½ thymus, ½ mesenteric lymph node, the remaining liver, and the right kidney were collected in 10% NBF for histology. Serum was collected and frozen at −80° C. for immunoglobulin and cytokine assays.
Approximately 100 μL of peripheral blood was collected by retro-orbital bleed into serum separator tubes (Becton Dickinson). Serum was collected by centrifugation (2-3 min, 16,000×g, 4-6° C.) and stored at −20° C. until analyzed. To determine anti-collagen Ig antibody levels, NUNC plates were coated with 10 μg/mL chick type-II collagen (Chondrex, Redmond Wash.) and incubated overnight at 4° C. Plates were washed with ELISA C, blocked (5 minutes, room temperature) with Super Block (Pierce, Rockford, Ill.), and washed with ELISA C. Diluted serum samples (diluted in ELISA B 5-fold from 1:5000 to 1:625,000) were added to ELISA plates in triplicate and the plates were incubated overnight at 4° C. After incubation, the plates were washed with ELISA C, and peroxidase-labeled goat anti-mouse Ig Fc (Zymed, 1:2000 in ELISA B) was added. The plates were incubated (room temperature, 90 minutes), rinsed again using ELISA C, and HRP activity was developed using o-phenylenediamine dihydrochloride substrate (10 mL NovoD+1 tablet OPD+10 μL H2O2, Pierce). The reaction was stopped with 1N H2SO4. […]

Data set [2] can be described thus: LPS-induced endotoxemia mouse model. It is filed as in vivo, mice. The procedure: Briefly, six month Balb/c (CRL) female mice were injected with 25 μg LPS (Sigma) in sterile PBS intraperitoneally (IP). Serum samples were collected at 0, 1, 4, 8, 16, 24, 48 and 72 hr from groups of 8 mice for each time point. Serum samples were assayed for inflammatory cytokine levels. IL-1b, IL-6, TNFa, IL-10 and serum amyloid A protein (SAA) levels were measured using commercial ELISA kits purchased from Biosource International (Camarillo, Calif.).
Body temperatures in a separate group of animals were monitored by surgically implanted telemetry devices over the course of the 72 hr experiment. Body temperatures in mice dropped maximally by 2° C. from 37.07° C. to 34.98° C. 30 minutes after LPS injection.
The ability of zcytor16 treatment to effect proinflammatory indicators induced with a single 25 μg LPS dose IP in mice was tested. All samples were analyzed for SAA, IL-TIF and circulating neutrophil counts. Subsets from each group were analyzed for particular cytokine levels (1 hour samples were screened for TNF alpha, 4 hour samples were analyzed for IL-6) Animals were sacrificed at indicated time points in Table 17 below and whole blood and serum were collected and aliquoted for analysis.
72 B1/6 female mice (CRL) were given a single IP dose of zcytor16 as described in Table 17, below. Control mice were C57B1/6 (CRL).
30 minutes later, they received another IP injection of 25 μg LPS (Sigma) in 100 μl, to initiate an endotoxemia cascade.
To assess whether zcytor16 could inhibit the SAA induction in the LPS-induced endotoxemia mouse model, mice were injected with Zcytor16, 30 minutes prior to LPS injection, as shown in Table 17 in Example 31C above.
An ELISA to determine SAA levels in the 4 hour and 8 hour samples was performed using the Mouse SAA Immunoassay Kit (BioSource International, California) following the manufacturer's directions.

B1: zcytor16-Fc4: soluble receptor for IL-TIF, zcytor16 fused to Fc4; IL-TIF antagonist (protein)
chain: TQSTHESLKPQRVQFQSRNFHNILQWQPGRALTGNSSVYFVQYKIYGQRQWKNKEDCWGTQELSCDLTSETSDIQEPYYGRVRAASAGSYSEWSMTPRFTPWWETKIDPPVMNITQVNGSLLVILHAPNLPYRYQKEKNVSIEDYYELLYRVFIINNSLEKEQKVYEGAHRAVEIEALTPHSSYCVVAEIYQPMLDRRSQRSEERCVEIPEPRSSDKTHTCPPCPAPEAEGAPSVFLFPPKPKDTLMISRTPEVTCVVVDVSHEDPEVKFNWYVDGVEVHNAKTKPREEQYNSTYRVVSVLTVLHQDWLNGKEYKCKVSNKALPSSIEKTISKAKGQPREPQVYTLPPSRDELTKNQVSLTCLVKGFYPSDIAVEWESNGQPENNYKTTPPVLDSDGSFFLYSKLTVDKSRWQQGNVFSCSVMHEALHNHYTQKSLSLSPGK
Take B1: the “disease score (paw score, incident of inflammation or disease)” value in data set [1] (10 μg three times a week for 4 weeks) is “significantly reduced the disease score”. In addition, the IL-6 levels is 10,865+/−1478 pg/ml in data set [1] (10 μg zcytor16) and 9651 ± 1563 pg/mL in data set [1] (100 μg zcytor16). In addition, the figures for the SAA concentrations in data set [1] (10 μg zcytor16) and in data set [1] (100 μg zcytor16) were 348 ± 37 µg/mL and 381 ± 40 µg/mL, respectively. In data set [1] (100 μg or 10 μg groups vs PBS, serum ELISA), the “levels of anti-collagen antibodies” value is “no statistically significant effects”. For the same molecule, the “paw scores and measurements” value in data set [1] (100 or 10 μg IP 3 times a week for 4 weeks vs PBS) is “No statistically significant differences”. In data set [1] (100 or 10 μg IP vs PBS), the “changes in body weight, CBC parameters, or anti-collagen antibody levels” value is “no significant differences”. For the same molecule, the “effect on SAA induction” value in data set [2] (10 ug 30 minutes prior to LPS) is listed as “did not have significant effect”. Further, the “reduction of the SAA induction” value in data set [2] (100 ug 30 minutes prior to LPS, 4 hr and 8 hr) is “about 50%”. In addition, the “neutrophil count in circulation” value in data set [2] (1 hr time point) is listed as “reduced neutrophil count”. Moreover, the “SAA levels relative to PBS injected mice” value in data set [2] (4 hour, 100 μg or 10 μg) is reported as “dose-dependant, statistically significant reduction”; in data set [2] (8 hour, 100m) it was “statistically significant reduction”. In data set [2] (mouse, in vivo), the “TNF-alpha and IL-6 level” value is recorded as “no significant change”.
